One assay has as its target HLA-A*01:01. Kind of assay: IEDB peptide-MHC binding, purified MHC/direct/fluorescence; filed as Kd, often an IC50 or EC50 that approximates it; ≥ and ≤ were set here for values at or beyond the usual limits of such assays.
A further assay has as its target HLA-A*02:03. Described as above.
A further assay deals with HLA-A*02:11. The description is as above.
In another assay the target is HLA-A*02:12. The description is as above.
Another assay deals with HLA-A*02:16. The assay is described as above.
The target of the next assay is HLA-A*02:19. The assay is described as above.
Assay [1] concerns the target HLA-A*03:01. The description is as above.
Another assay addresses HLA-A*23:01. The assay is described as above.
In the next assay the target is HLA-A*24:03. The assay is described as above.
The target of assay [2] is HLA-A*02:01. Nature of the assay: IEDB peptide-MHC binding, purified MHC/competitive/fluorescence; filed as Kd, often an IC50 or EC50 that approximates it; ≥ and ≤ were set here for values at or beyond the usual limits of such assays.
In a further assay the target is HLA-A*26:01. Described as above.
The next assay addresses HLA-A*69:01. Described as above.
In the next assay the target is HLA-B*18:01. The assay is described as above.
The next assay has as its target HLA-B*27:03. The assay is described as above.
The target in a further assay is HLA-B*39:01. The description is as above.
The target in the next assay is HLA-B*46:01. The assay is described as above.
For another assay, the target named is HLA-B*51:01. The assay is described as above.
The target in the next assay is HLA-B*57:01. The description is as above.
The target in assay [3] is HLA-A*02:01. Kind of assay: IEDB peptide-MHC binding, purified MHC/competitive/fluorescence; ≥ and ≤ were set here for values at or beyond the usual limits of such assays. Particulars: source organism: Sudan ebolavirus.
The target in another assay is HLA-A*24:02. The assay is described as above.
The next assay deals with HLA-B*07:02. The description is as above.
Assay [4] addresses HLA-B*15:01. Described as above. The following applies: source organism: Sudan ebolavirus.
Another assay concerns the target HLA-A*30:01. Nature of the assay: IEDB peptide-MHC binding, purified MHC/direct/fluorescence; filed as Kd, often an IC50 or EC50 that approximates it; ≥ and ≤ were set here for values at or beyond the usual limits of such assays. The following applies: source organism: Vibrio cholerae V52.
In the next assay the target is HLA-A*29:02. Described as above.
A further assay addresses HLA-A*68:02. The assay is described as above.
The target in the next assay is HLA-A*31:01. Nature of the assay: IEDB peptide-MHC binding, purified MHC/competitive/fluorescence; filed as Kd, often an IC50 or EC50 that approximates it; ≥ and ≤ were set here for values at or beyond the usual limits of such assays. The following applies: source organism: Zaire ebolavirus.
In assay [5] the target is HLA-B*15:01. Described as above. Particulars: source organism: Zaire ebolavirus.
A further assay concerns the target HLA-B*15:17. The description is as above. The following applies: source organism: Zaire ebolavirus.
The target in assay [6] is HLA-A*03:01. Nature of the assay: IEDB peptide-MHC binding, purified MHC/competitive/fluorescence; ≥ and ≤ were set here for values at or beyond the usual limits of such assays. Particulars: source organism: Vaccinia virus Copenhagen.
In a further assay the target is HLA-A*11:01. The assay is described as above. The following applies: source organism: Vaccinia virus Copenhagen.
Where [7] appears, read: source organism: Orthohantavirus sinnombreense.
Where [8] appears, read: source organism: Sudan ebolavirus.
Where [9] appears, read: source organism: Entamoeba histolytica HM-1:IMSS.
Setting [10] is: source organism: Ravn virus - Ravn, Kenya, 1987.
The mark [11] stands for this setting: source organism: Zaire ebolavirus.
Where [12] appears, read: source organism: Vaccinia virus Copenhagen.

Broadly, the Kd is the constant that tells how readily two partners part at equilibrium. A higher Kd goes with a looser complex. In the case of HTVGLGQGY, the Kd with HLA-A*01:01 (source organism: Orthohantavirus andesense) is at least 5 µM; with HLA-A*02:03 (source organism: Choclo virus), at least 20 µM; with HLA-A*02:11 (source organism: Choclo virus), at least 20 µM; in the assay with HLA-A*02:12 (source organism: Choclo virus), at least 20 µM; in the assay with HLA-A*02:16 (source organism: Choclo virus) it was at least 20 µM; with HLA-A*02:19 (source organism: Choclo virus) it was at least 20 µM. Besides, the Kd is at least 20 µM with HLA-A*03:01 [1] (source organism: Choclo virus); at least 20 µM in the assay with HLA-A*23:01 (source organism: Choclo virus); at least 20 µM in the assay with HLA-A*24:03 (source organism: Choclo virus); at least 20 µM with HLA-A*02:01 [2] (setting [7]); 0.0021 µM with HLA-A*26:01 (setting [7]); at least 20 µM with HLA-A*69:01 (setting [7]). In addition, the Kd with HLA-B*18:01 (setting [7]), with HLA-B*27:03 (setting [7]), with HLA-B*39:01 (setting [7]), with HLA-B*46:01 (setting [7]), with HLA-B*51:01 (setting [7]) and with HLA-B*57:01 (setting [7]) was at least 20 µM in each case.

Usually IC50 stands for the concentration that inhibits the measured activity by half. High values mean a need for much substance, low ones inhibition by little substance. In the case of QLKSVGLNL, the IC50 with HLA-A*02:01 [3] turned out to be 7.56 µM; with HLA-A*24:02 (setting [8]), 24.5 µM; in the assay with HLA-B*07:02 (setting [8]), 6.4 µM; with HLA-B*15:01 [4], 14.4 µM.

In the case of QYIHLLCNK, the Kd with HLA-A*23:01 (setting [9]) was found to be 0.2 µM; with HLA-A*24:03 (setting [9]) it was 1.11 µM.

On to WSHRVTSPK, for which the Kd with HLA-A*01:01 (source organism: Vibrio cholerae) is at least 20 µM; with HLA-A*30:01 it was 0.05 µM.

With HSGFIYFGK, the Kd in the assay with HLA-A*02:03 (setting [10]) was at least 20 µM; with HLA-A*02:11 (setting [10]), at least 20 µM; with HLA-A*02:12 (setting [10]) it was at least 20 µM; in the assay with HLA-A*02:16 (setting [10]), at least 20 µM; in the assay with HLA-A*02:19 (setting [10]), at least 20 µM; in the assay with HLA-A*03:01 [1] (source organism: Sudan ebolavirus - Uganda (2000)), 3.47 µM. The Kd with HLA-A*23:01 (setting [10]), with HLA-A*24:03 (setting [10]), with HLA-A*29:02 (setting [10]), with HLA-A*68:02 (setting [10]), in the assay with HLA-A*02:01 [2] (setting [11]) and with HLA-A*26:01 (setting [11]) was at least 20 µM each time. For the same sequence, the Kd in the assay with HLA-A*31:01 is 0.797 µM; in the assay with HLA-A*69:01 (setting [11]) it was at least 20 µM; in the assay with HLA-B*15:01 [5], at least 20 µM; with HLA-B*15:17, at least 20 µM; with HLA-B*18:01 (setting [11]), at least 20 µM; with HLA-B*27:03 (setting [11]), at least 20 µM. For the same sequence, the Kd with HLA-B*39:01 (setting [11]), with HLA-B*46:01 (setting [11]), in the assay with HLA-B*51:01 (setting [11]) and in the assay with HLA-B*57:01 (setting [11]) was at least 20 µM throughout.

Consider KITFALKKL, for which the IC50 in the assay with HLA-A*03:01 [6] was 11.3 µM; in the assay with HLA-A*11:01, 19.3 µM; with HLA-A*24:02 (setting [12]), 34.8 µM; in the assay with HLA-B*07:02 (setting [12]), 61.2 µM.

On to QTEPKTSVV, for which the Kd with HLA-A*01:01 (source organism: Ebola virus - Eckron (Zaire, 1976)) was 16.4 µM; with HLA-A*02:03 (setting [11]), at least 20 µM; with HLA-A*02:11 (setting [11]) it was at least 20 µM; with HLA-A*02:12 (setting [11]), at least 20 µM; with HLA-A*02:19 (setting [11]), at least 20 µM; with HLA-A*03:01 [1] (setting [11]), at least 20 µM. The Kd with HLA-A*23:01 (setting [11]), in the assay with HLA-A*24:03 (setting [11]), in the assay with HLA-A*29:02 (setting [11]), with HLA-A*68:02 (setting [11]), in the assay with HLA-A*02:01 [2] (setting [11]) and with HLA-A*26:01 (setting [11]) was at least 20 µM in each case. Moreover, the dissociation constant (Kd) with HLA-B*15:01 [5], with HLA-B*15:17, with HLA-B*18:01 (setting [11]), with HLA-B*27:03 (setting [11]), with HLA-B*39:01 (setting [11]) and with HLA-B*46:01 (setting [11]) was at least 20 µM in each case. Also, the Kd in the assay with HLA-B*51:01 (setting [11]) and with HLA-B*57:01 (setting [11]) was at least 20 µM each time.
